{"source": "the DeepSol protein solubility set", "data": [{"test": "soluble on expression in E. coli; label from the status in PepcDB or PDB records", "values": [{"sequence": "MPVDQSRQYLRIRDQLAADIAQGVLQVKLPSERELAERFLCTRITLREALQQLETEGLVYRENRRGWFVAPPRIRYNPTRTTGFMEYVSAQGRQPRTETLHAERRAAGAWLAKRMGLEDSAPVYFLQRRRWVDERPVLIELIALDAGWCPGLLDHDLDTSLMSLLRERFGLQPTRCQLAMHPTALNAAQAEPLQLAPGSPALYLERLSYAEGQRVVEFDQEFWRPDALEIVLDAAYPGA", "soluble on expression in E. coli": "not soluble"}, {"sequence": "MLKKGNEMKAVIVYASVHHGNTKKIEEAMASVISADVIDVTRKIKPDLSGYDVIGFVSGVYFHTFHEGIKKCIEENMSSKGQKVFLVATCGLGYRDYTKGMKDTLAKKDVLCMGSFQCRGWDTYGIFGKIGGIAKKHPNDRDLKEAQEFVLKTVCKTNNLEHHHHHH", "soluble on expression in E. coli": "not soluble"}, {"sequence": "MTYHLQGTTGYGLGDSGRETLDRVMARILGTEAALVRGQFVSGTHAIATALFGVLRPGDHFISVTGDPYDTLEEVIGIRGTGQGSLKDFGVSYDSVPLSEEGTIQHSLVSQGIKPNTKMLILQRSRGYAWRNSLPMEQIAAFVAYVREHFPHLIIFVDNCYGELVEKCEPGDVGADLMAGSLIKNLGGSLAPTGGYIAGRQELVEKAACRLTAPGIGGEVGATLSWQLQFFQGLFFSPLEHHHHHH", "soluble on expression in E. coli": "not soluble"}, {"sequence": "MIQIEDVVVSFDVLREKFLCNLDACKGECCIEGDAGAPVELDEVEKLEEVLPIIWEELSPEARAVIEKQGVVYTDQEGDLVTSIVNNKDCVFTCYDEKGCCYCAIEKAYRDGKTDFYKPVSCHLYPIRIGDYGPYKAVNYHRWDVCKAAVLLGKKENVAVYQFLKEPLIRKFGEKWYQELEVAVKELKAHDMI", "soluble on expression in E. coli": "not soluble"}, {"sequence": "MSEAESCEETSKEHRIWKKNVPYLYDTVVTKEVEWPSLSVQWMPDVTKTENSDSSMHRMIHGTHTCGGVQNHLMISKFTITTDTPEFDDAKWDSEREEFGGYGEGSAAKWDTEIKINHPGEVHRARYMPHNPFIIASRGPSDDVYIFDYTKHPSEPKDTKFRPQLRLKGHEGEGYGMSWSNTREGHLLTAGDDGMICHWDINANQTISGQIVPQSKFKGHSSNAEDVSFHALHNFVFGSVGDDRKLNLWDLRQSKPQLTAVGHTAEVNCITFNPFSEYILATGSVDKTVALWDMRNMRKKMYTLKHHNDEIFQVSFSPHYETVLASSGSDDRVIVWDISKIQDPSSSSAASSDSVPPEVIFIHAGHTGKVADFSWNPNRPWTICSSDEFNALQVWEVSNSLVSSEKWETEMI", "soluble on expression in E. coli": "not soluble"}, {"sequence": "GSHMSSGYPGVSWNKRMCAWLAFFYDGASRRSRTFHPKHFNMDKEKARLAAVEFMKTVENNGRKKLEPGGSQFIVTD", "soluble on expression in E. coli": "soluble"}, {"sequence": "MATNAKPVYKRILLKLSGEALQGTEGFGIDASILDRMAQEIKELVELGIQVGVVIGGGNLFRGAGLAKAGMNRVVGDHMGMLATVMNGLAMRDALHRAYVNARLMSAIPLNGVCDNYSWAEAISLLRNNRVVILSAGTGNPFFTTDSAACLRGIEIEADVVLKATKVDGVFTADPAKDPSATMYDQLTYSEVLDKELKVMDLAAFTLARDHKLPIRVFNMNKPGALRRVVMGEKEGTLITELEHHHHHH", "soluble on expression in E. coli": "not soluble"}, {"sequence": "MKIRSLIRVRLTRFFPSDRYIKNRCSGADGVLIDFEKKEDKVDDYKLSSFHRLKNSKFSLPKLLVDPVTTNSNQWIPRLIEEKSVDGVAMRNFTDDVISLDNEIFTMIWDTREQRITHSIISYHRINDCDIMWNSSIRTAVQDSLEHDIQPLAARTLRFRDYETAVQEFEILRQIGFTGAVIRNPNLIEMTNEIFEK", "soluble on expression in E. coli": "not soluble"}, {"sequence": "MGHHHHHHSHMKKEHVLHCQFSAWYPFFRGVTIKSVILPLPQNVKDYLLDDGTLVVSGRDDPPTHSQPDSDDEAEEIQWSDDENTATLTAPEFPEFATKVQEPINSLGGSVFPKLNWSAPRDAYWIAMNSSLKCKTLSDIFLLFKSSDFITRDFTQPFIHCTDDSPDPCIEYELVLRKWCELIPGAEFRCFVKENKLIGISQRDYTQYYDHISKQKEEIRRCIQDFFKKHIQYKFLDEDFVFDIYRDSRGKVWLIDFNPFGEVTDSLLFTWEELISENNLNGDFSEVDAQEQDSPAFRCTNSEVTVQPSPYLSYRLPKDFVDLSTGRDAHKLIDFLKLKRNQQEDD", "soluble on expression in E. coli": "not soluble"}, {"sequence": "MKLHEAKLLLNDPTFSIDSITYQELEMDSDYVDVHEDISYSKDNVDLHSHTFFEILFCQSGSLQYMVGNTRYQLVKNSIVCIPPGVSHCPLYLEQLSEPYRRTVMWISNKIYHQYMNLLNNDPIEKSSCLLPQNVFLLSGNILYQVEELYEKMLNIPPDFSGAELYKIGLSAQIVTLFHQFLNSHEINPLKPEKTILLDEIIHFIENHLSEELSAKRIAAHFLVSESSINQLFSKQISLSLYRYITQRRLIEAKNLISSQTPLKKLPELCGFSDYSVFYKAFTKQYGISPKEYKNRIFKMQQ", "soluble on expression in E. coli": "soluble"}, {"sequence": "MTQVPPSASPADLLAVLERIATALERQGAPAVPANSLDGADAFVWHAAESWLEPVCRVNRVDIALLQGIERQRQTLYDNTLRFAHGLPANNALLWGARGTGKSSLVKAVHASVNQALTAKGAAPVALVEIHREDIPTLPRLLRILAASGRPCLLFCDDLSFDGNDSSYKSLKAVLEGGIEGRPDTVIFYATSNRRHLLAREMVENEQSTALHAGEAVEEKVSLSDRFGLWLGFHNVDQPTYFDIVDGYARAYGLDIETEDLHREAREWSMARGSRSGRTAWQFIQDLAGRLGKTLELEHHHHHH", "soluble on expression in E. coli": "soluble"}, {"sequence": "MGSDKIHHHHHHMILMNNPGDKEVLRLLKQRMESVSQVEETVKEIIRRVKEEGDRALEEFLKRFEKHPVGIENLRVTEKEISEAQVEEEFVETIKIVIEDLKEFHRRQEERSFFFTTKGGSFLGEMVVPLESVGIYVPGGKVPYFSTLLMCAVPAIVAGVERIAVTTPPNENGGISPYILKTCEILGLKEIYRMGGAHAVAALTYGTETVKPVDKIVGPGGVFVTLAKKHVYGDVGIDSIAGPSEIAIVTDGSADLDLIAADFLSQAEHDENAMSVVITTSKEVFEKLPQVIERHLEALPEERRKTARISTENFGTIILTDSLKRAFEISNLIAPEHLEVLVENPFEPLGHIKNAGSVFLGKYTCESVGDYGAGPNHVLPTFRSARFSSGLRVSDFTKKIFITHLSEEDFRRKSELYSKMARWEGFEAHARAIDVRREKL", "soluble on expression in E. coli": "not soluble"}, {"sequence": "GAMGKVTHSIHIEKSDTAADTYGFSLSSVEEDGIRRLYVNSVKETGLASKKGLKAGDEILEINNRAADALNSSMLKDFLSQPSLGLLVRTYPEL", "soluble on expression in E. coli": "soluble"}, {"sequence": "AEEELETPTPTQRGEAESRGDGLVDVMWEYKWENTGDAELYGPFTSAQMQTWVSEGYFPDGVYCRKLDPPGGQFYNSKRIDFDLYT", "soluble on expression in E. coli": "soluble"}, {"sequence": "MGSDKIHHHHHHMDKPMTENPVHPAEAGPSGPADAAGKAPGLAAVESRQRMRDGTELLLRTWEPDPCMFPETVGCVLLVHGLAEHCGRYQHVAEVLCGLGLRVRAYDQRGHGASGGARMVAEHPDAYLNDLVEIHDAAVRVWKELPILLGHSMGGLVAARFATARLRPVRALVLSSPALALRLSPTMLTIHRVLLTLAPRLRVPNPIDARMLSHDAHVVARYRADPLVQTTITAGVLESFIRGMAQAQTDAPRLEAPMLMLVGGADKIVDPGGSRTFFDHAPADLREEVWFGEGYHEIFNEAEPLRSKVFAALTDWLRRHLAQPV", "soluble on expression in E. coli": "not soluble"}, {"sequence": "MSLSAPKQWQVGIVGYGEVGKILAEDLRAQGVKVAAYDVKLADDRGGPLREHASRHDVALTTSHAELAARSDFIISAVTASQTVAVAEACAGAINQGTWFLDFNSASPGAKQRAASLIDGAQGRYVEGAVMTSVPPYRIKVPLLLGGAYAAELAPLINTLGFAAKPASDQLGVASATKMCRSIMIKGLEAMVIESFTTARAYGVEDAVIASLQETFPQIDWEKQGAYFFQRVIAHGRRRAEEVREVAETVREAGLTPWSAQGTAERQAWVADLADEGLFGTRGASGFARSPDWRTEADRILAKVKDETKTEGHHHHHH", "soluble on expression in E. coli": "not soluble"}, {"sequence": "MSQDNLSAVLYGVDDLRLEQVPIPKPGPNQVLVKVHTVGICGSDVHYWTHGAIGPFVVKEPMIVGHETSGIVSEVGNEVKHLKVGDRIAMEPGLPCKLCEHCKTGRYNLCPEMRFFATPPVHGTLSRFVVHDADFCFKLPDNLSFEDGALIEPLSVAIHACRRGNVQMGHRVLVLGAGPIGVLNLITAKAVGAGKVVITDLDDGRLALAKKLGADATINVKGKSLDAVKSEIITALGDQQPDVCIECTGAQPSIETAITTTKSGGVIVLVGLGADRVEIPIIESATREVDMRGIFRYVNCYPTAIELISSGKLNLSGLTRAHYKLEETQEAFKRTQKADVIKVFIQC", "soluble on expression in E. coli": "not soluble"}, {"sequence": "MGSDKIHHHHHHMQQLFVQLLEERYFNRLPEALVLKFATESADFVRFWLVHCMRSMVSERELAIALFFSAEWELEELASLKSFWGSYVAMEEAQEVKATFCHFVPWLKTISPHHEDAICVFSALWFFEHRPTSVGKQLQSATLSHSQLPVSLLDDIKLFSLPHLRPITVYGHQGKGSVESGIRNNMHYPTPIPNDNLAMACVERVIAKFAGIKLAFAEPIVVLRYEPGQFYQWHYDAIHAYTAEIQAELERFGQRSRTAILYLNDDFEGGETEFKAPYIQVKPETAAILVFDNTDQTGKPIPSSLHRGCEVTAGKKWVCTQWFRDKPFWLRAGLLA", "soluble on expression in E. coli": "not soluble"}, {"sequence": "LGTLFFSLEYNFERKAFVVNIKEARGLPAMDEQSMTSDPYIKMTILPEKKHKVKTRVLRKTLDPAFDETFTFYGIPYTQIQELALHFTILSFDRFSRDDIIGEVLIPLSGIELSEGKMLMNREII", "soluble on expression in E. coli": "soluble"}, {"sequence": "SDMRQHEEYIADMALDPAKKLLLTASGDGCLGVFNIKRRRFELLSEPQSGDLTSVALMKYGKKVACGSSEGTIYLFNWNGFGATSDRFALRAESIDCIVPVTENLLCTSSTDGIIRAVNILPNRVVGTVGQHAGEPVEALALSHCGHFLASSGHDQRLKFWDMTQLRTVVVDDYRRRKKKGGPLRALSSKAWSTDDFFAGLREDEEDAKAPEEVVRESDDDDDDSD", "soluble on expression in E. coli": "soluble"}, {"sequence": "MYQLTVFYDGTCPLCAKEMRALKQQDKNNVIKTIDIYSEVFSEYSNIDPKAANTVLHALNQKGELILGLDVTYLAWKLVGKGWLYAPLRWPGIKVIADWCYLHFAKNRYRVSYWLTGVSRCNKTSCSKLEHHHHHH", "soluble on expression in E. coli": "not soluble"}, {"sequence": "MGSDKIHHHHHHMKIVYIITQATWGGAQAHLYSLIKAQVMRGNAVALVYGVEGRLSASVAKEFQDVQVVRVASLVHPIAPLSDLKAIYTLRKLVKNWQPDIIHLHSSKAGMIGRLATIRLPMKVIFTVHGWGFTPGVGKKRQLLMKTIEKALSRLTTAYICVSQFDYDLGVQSGVITSAHPARVIHNGVTALTGANKATSSEVFVLSMAARFDTPKRQDILIQALTYLPENLPIVCHFLGDGPSIEACKTLTHQLNLDGKVNFYGVVDNVQKYYSQSDVGVLISDYEALPISLVEALAQGLPIIASNVGGIQELIDHNGFLVTNDARQIAEKILTLYQSKKIAEVKTNSYQMYQRHYTEHEMLEQTQAYYLRCLA", "soluble on expression in E. coli": "not soluble"}, {"sequence": "SKDELGEVIHAFNRMMTKLRKREKQRQHSLATLEQKRAFSEEVIESIQYALVITDNLGTIIHSNAATQHIFQKTPEALENANIRDLIKTKMPNELSQILSRCLECDDIHLQNIDNEQQLSLTTRRLSNHGYLLFAIQD", "soluble on expression in E. coli": "not soluble"}, {"sequence": "MEIELICICCPKGCHLKVDDKSLRVEGNNCPRGAEYGVNEITNPVRTITSTVKVEKGEAVIVPVKTKEPIPKKLTMGCMEEINKAVINAPVKIGDVVIKNVLGTGIDVVATKNVSGI", "soluble on expression in E. coli": "soluble"}, {"sequence": "MSEKDFVQVAKLGKTVGLKGYVKLHNLSDFSSQFKKDATFFIKNTKEMLKIKHYNANNSTVLFENYEDIEKAKELTNLILFQSIEKSRQTCKLKKDEFFYFDILECEVFEEDKRLGKVVDILETGASYLFEIQSDEKWVEKKYPKIFFIPYLDKFVKNIDIEKRQIFCTQDAFLILENSLEHHHHHH", "soluble on expression in E. coli": "soluble"}]}]}
